Reference: patent publication US20160200813A1
Blank lines part the entries; values can stand above or below the binder they belong to.

Tests used:
[1] = target: Mouse LRP-8 expressed on HEK293 cells (mouse) (UniProt Q924X6); assay: cell-based MSD, 1 to 5, mouse-LRP8-HEK293
[2] = target: Mouse LRP-8 expressed on HEK293 cells (mouse) (UniProt Q924X6); assay: cell-based MSD, 1 to 25, mouse-LRP8-HEK293
[3] = target: Mouse LRP-8 expressed on HEK293 cells (mouse) (UniProt Q924X6); assay: cell-based MSD, 1 to 125, mouse-LRP8-HEK293
[4] = target: Mouse LRP-8 expressed on HEK293 cells (mouse) (UniProt Q924X6); assay: cell-based binding on MOUSE LRP8-HEK293, supernatant 1:5
[5] = target: Mouse LRP-8 expressed on HEK293 cells (mouse) (UniProt Q924X6); assay: cell-based binding on MOUSE LRP8-HEK293, supernatant 1:25
[6] = target: Mouse LRP-8 expressed on HEK293 cells (mouse) (UniProt Q924X6); assay: cell-based binding on MOUSE LRP8-HEK293, supernatant 1:125
[7] = target: Mouse LRP-8 expressed on HEK293 cells (mouse) (UniProt Q924X6); assay: FACS, mouse LRP8 cells
[8] = target: Mouse LRP-8 expressed on HEK293 cells (mouse) (UniProt Q924X6); assay: cell-based binding assay, mLRP8
[9] = target: Mouse LRP-8 expressed on HEK293 cells (mouse) (UniProt Q924X6); assay: mLRP8 cell binding; chimeric VL / chimeric VH

fold over IgG control [1]: 3.5 fold
fold over IgG control [2]: 6 fold
fold over IgG control [3]: 5.3 fold
fold over isotype control [4]: 27.4 fold
fold over isotype control [5]: 21.6 fold
fold over isotype control [6]: 13.1 fold
B1: BGK-7F7 (GENOVAC candidate clone of Table 17) (antibody, V domains shown)
VH: QVTLKESGPGILQPSQTLSLTCTFSGFSLSTYGLGVGWIRQPSGKGLEWLANIWWDDAKYYNPSLKNRLTISKDTSNNQAFLKIPNVDTADTARYYCARTTKPYYFDYWGQGVMVTVSS
VL: HFVLAQPNSVSTNLGSTVKLSCKRSTANIGSNYVNWYQQHEGRSPTTLIYRDDRRPDGVPDRFSGSIDRSSNSALLTINNVQTEDEADYFCQSYSSGINIFGGGTKLTVL

FACS (ratio +/-) [7]: 283
EC50 [8]: 0.32 nM
EC50 [9]: 0.95 nM
B2: chimeric anti-LRP-8 ML199.11H1.5B2 antibody [mu/hu IgG1/k] LALA (antibody, V domains shown)
VH: EVQLVESGGDLVKPGGSLKLSCAASRFTFSNYGMSWVRQTPDKRLEWVATISSGGRYTYYPDSVKGRFTISRDNAKNTLYLQMSSLRSEDTAMYYCARDYLYAMDYWGQGTSVTVSS
VL: DVVMTQTPLSLPVSLGDQASISCRSSQSLVYSNGNTYLHWYLQKPGQSPKVLMYKVSNRFSGVSDRFSGSGSGTDFTLKISRVEAEDLGVYFCSQSTHVPLTFGAGTKLELK
